Earlier results on one substance are cited in publication PMC9776395.

This data set addresses His193 (UniProt position 193, WVLGEHGDSSV). The data set can be described thus: kinetics. As to conditions: Enzyme-NADH complex binding pyruvate (pyruvate reduction direction).

As usually defined, the pKa is the pH at which an ionisable group is half protonated. Take “L-lactate dehydrogenase A chain (LDHA, M subunit, LDH5 homotetramer) (Homo sapiens)”: the pKa was 7.31.
